From the DeepSol protein solubility set

assay: soluble on expression in E. coli; label from the status in PepcDB or PDB records

Sequence | soluble on expression in E. coli
MSLSALLNYKLEGSGETVVLIHGLFGSLDNLGLLARDLKNDHQVLSLDLRNHGLSFHSDEHNYALMAQDVNQLLEHLNLTSVVVIGHSMGGKVAMKLADIAAEKVRQLVVLDMSPVAYSQRRHDNVFAGLEAVLVQKPTSRSEVMAILAQHIEQEGVRQFLGKSLMSEQNVMTWRFNVAALKAHYAEILGWDIIAKCRIPTLFIKGADSDYLTTQHQPMVQAQFSQAKAHVIANTGHWLHAEKPAEVIRAIRKFIDVPVEGHHHHHH | soluble
MGDTFIRHIALLGFEKRFVPSQHYVYMFLVKWQDLSEKVVYRRFTEIYEFHKTLKEMFPIEAGAINPENRIIPHLPAPKWFDGQRAAENRQGTLTEYCSTLMSLPTKISRCPHLLDFFKVRPDDLKLPTDNQTKKPETYLM | soluble
MAKGGKSPKGKKITLNVAKNCIKITFDGRKRLDLSKMGITTFPKCILRLNEIDELDLSRNMIRKIPDSISKFQNLRWLDLHSNYIDKLPESIGQMTSLLFLNVSNNRLTTNGLPVELNQLKNIRTVNLGLNHLDSVPTTLGALKELHEVGLHDNLLTSIPAGISKLPKLKKLNVKRNPFPKPDESDMFVDSIKRLENLYLVEEKDLCSSCLQKCQQARDKLNKIRSMAPSAPRKAIFSNLVSPNSTAKESQEEWSV | not soluble
MGSDKIHHHHHHMNTSGDRLRILLRECHLTATDFAANRKITPQHVNNWFKRGVPMARIDEVAELLTVNARWLRSGDGPKHPNESANENTGDDKRMAIQQTRNVLRGDVEIQIYMEVESPHGVGKTVLSEAPGQKIRLPLQVLQTMGIDPKNCMCVAMVGNSMADKIQDGSILGVDRELTQVIDGEIYALEHGGILRVRYLYRLPNGGLRLRSHNDAEYPDEVFSGEDIAREKIRILGWIFWWSTLNSRRNAMLLL | not soluble
MGSDKIHHHHHHMIDKLEFFIALAKEEHFGRAAEACGVTQPTLSAGIKQLEGQLGVMLVNRGSRFQGLTPEGKQVLVWARRIVGDSRSMREEMRAARHGLSGRIRIAAIPTALAMVARLTTPFREKHPGVTFSVLSRTSIEVLSLLGNFDIDAGITYLDNEPLGRVTSVPLYDERYQLITAVGNPYSDRDKVTWAEISRLPLCLLTPDMQNRRIIDQHLAEAGVQVRPTLESNSMIVLFSHIRTGKWSSIMPLNLAETFGFSEPIRAIPIVEPDASHTVGLVAAPREPHTPLVQALLDEAMALADDFRAHR | not soluble
MSLDDHTRDPTVKAPDGNPSGWRTDGQWEHETLRRAVVHGVRLYNSGEFHESHDCFEDEWYNYGRGNTESKFLHGMVQVAAGAYKHFDFEDDDGMRSLFRTSLQYFRGVPNDYYGVDLLDVRTTVTNALSDPSALHGWQIRLDGEYPTCRPEDIEFAESLEHEGHHHHHH | soluble
MAGDPMIIYRQYHHEGAPVYEIITKTFQHVSIKCDDSFSDTEIFKLLSLLQDDIDHMKVSLEHHHHHH | not soluble
MGSSHHHHHHSSGLVPRGSHMAAPIRFFELNTGAKLPCVGLGTYAMVATAIEQAIKIGYRHIDCASIYGNEKEIGGVLKKLIGDGFVKREELFITSKLWSNDHLPEDVPKALEKTLQDLQIDYVDLYLIHWPASLKKESLMPTPEMLTKPDITSTWKAMEALYDSGKARAIGVSNFSSKKLTDLLNVARVTPAVNQVECHPVWQQQGLHELCKSKGVHLSGYSPLGSQSKGEVRLKVLQNPIVTEVAEKLGKTTAQVALRWGLQTGHSVLPKSSSGARLKENLDVFDWSIPEDLFTKFSNIPQEKFCRATEFAHETHGFYKTIEELWDGEI | soluble
MSLSEPSVQADTRLNALIVQDIPERMPIYRALIEQLDVPSTLIEIEAMIVDVNTDLVNELGVTWGAQIGTTSLGYGDLGLRPGNGLPVDGAAAELAPGTLGISVSTRLAARLRALESDGQANILSQPSILTADNLGAMIDLSDTFYIRTLGERVATVTPVTVGTSLRVTPRYIAAKGGRQVELAIDIEDGRVLQEYPIDGLPRVRKSSISTLAVVGDEQTLLIGGYNNRRDEEQVEKVPLLGDIPGLGFLFSSKSRAVQRRERLFLIRPRVVAIEGKPVFSPVAGTSQVFMSTEGHHHHHH | soluble
IFNVPFGLNINLLPQYHMYTTQEAKDKIYYYSGNKVGFDIGASAQIGYMWQVTDNFGISLLGELGYSFDSFNANFDTAKVENPNDITGQIDAPEGTQKLGSASFYTHNLKIGILPKFNIKAFSIGIGLGIIVPMAITQNWKDEAAKTLFKDASTKFMSSVGFYGKLTFDYSIFFTEKIAMNIGLYTGVDAIGSINTTINNTSLNQGAHSEAPLLSYDIGLQLGFRFGPKAFN | not soluble
MTSRDQGINSELSNRTIQFKEKIHNGIHTEYITDQKHSNNKDREKKYRDGDKINGPQAHSLDITNERRFADNRTMFTQHIEKQRNVNTLNQNDINNSANNANVRENELTYQFQRWGQNHTVRILESSEGIRLKPSDTLVSDRLHEAQHNDVTAQRWVLTEQDERQGQRHQPHEEQENEGKFENDQKDES | soluble
MGSDKIHHHHHHMAVPLPVSARKDTVVPVLMYHDVSNHFHDPFTISPALFAAHMEWLHAAGYRAVTVGEALAGRGATAGKMVVITFDDGYASFLDYVHPLLLQYGFSAAISVIGSHVGTWLERDGRRPMLSWDEYRYLAARRVEVGCHAYHLHAIERLRHASADELAEDLELFQKTMAREMGRRATLLAWPYGIYTSERVQIARQAGFVHILTSNEGYVDDGTDPGAIPRLNIDNRLDLVSFSNYLRGE | not soluble
MVFGPGLCIAHRGTIVVNKGARVGENCRIHACTNIGSGRDNIFLAPKIGNGVYIGPGAKIFGSVEIADNIAIGANSVVNRSFYERGISIAGVPAKKISNKGSDGMVIAATKTVSVPVSQETILEHHHHHH | not soluble
MKPADIDKLISEIRTAIYAEQSHRKIIEIDPDIYRKVRAALSDLQAEASEYFQKQDIENYLTMNNRFQTLKRDFRSLFQRRFEKIVAKAIYDISGETLSLLTDEEKEFIEKIHNIITEEFESFIPKREEKNEARAEAQPAPADESPTAIADQKPQEEPQVVQDQHQPPAEIPSENIEIKKEDGRYVLVMITEDLPPIAQLDRNYSLHSNDLVYLPQDLASILAKRKVALVLDQ | soluble
MILNKKKLYFETQAFTDKLINEISINMSKRKELINCYDIEAYVKETENIDFFDYPFKKQSKKLIWGSVTKIGDVTMVATAQHLKIEIKNFTKMHEIIHHYFDYTTDMPNNEKSFDTLLIKKGYLPEDYPKEFRANKGAGMLLINKKALKYAFSTYDDLEKMASFFNVNDIVLKIRILDELIYSHNLSYKQANLIYNSYYFQQQTQLKEILLK | not soluble
MGSDKIHHHHHHMSQYSVTSSSVVKEKASELGFHKVGIAAVDSIDATEAQRLQAWIELGYHADMEWMANPKRQDIRLVMPEARSLVCVALNYYTPHQRPEGEEYAKISRYGWGRDYHKVMHKKLKQLSTWLESLDESVRVRYYADTGPVQDKVLAQLAGIGWIAKNGNVITREYGSWVFLGEVLTNLELESDRPHTEHCGSCTRCLQACPTSAITQPFIVDANRCIAYHTIENRDEKLPQTLTSHLQGWVAGCDICQDVCPWNQRFASTTDIPEFQPYPGNIAPKLLELAQISDQEWNKRFPASALRRIKPEMLRRNALANLDASRQIMTPKVIIFDFDGTIADTVDALVSIANRLAVDFGYRHISPEQLSLLKNLTSREIIKYSGVSLFKIPFLVKKVKGELKNKIPELKPIPGIKEALIELQNKGYKLGIITSNSKDNVTQFLTINDLNHLFDFIYSGITIFGKTTIINNVLRQNQLQPQEVIYVGDETRDIEASKKANIQVIAVAWGFNSSEVLAKQNPDYLIQQPSELLEVMNGY | not soluble
MGSDKIHHHHHHMSENPIDAFIPEDIRDLYEIHNYRNAAQVLATGCPNEFQEIIEALRVFRLTLADIRKPGGNESDIPKRISGLLRAKGWMETRIKGDLLITKVSGTIDKNLGEKDLEGMEENESDTLEKIEELKNKGQVERIVRENFLDGHKVDYVKKRVAFDLEWNSKDQTFDRDLYAFRAFHECDLIDAAILLTRSASLNAVFEKLGPELNSDGTPKTSKNGKPKLIKTKYGASTTWMGKLLYRLNACRHGGCPVLALGITPNLITDWAEYESKNT | not soluble
MYTAIVNLKTYREATGANFTRFMEKFEPVQGKFELIFSPSLLDLEKAAKCGKFRFFAQHVDAEPYGAYTGHVPMDMMIDLGITGSILNHSERRLPRDTIINTLKKASKLDFTIVLCVENAEEAKYFREYEPDFIAYEPRDLIGGDVSVSTAKPEIIEDIVKIYEGTGTSVLVGAGIKTGEDVRRSIGLGARGILVASGVVKSADPTKSLNSLIELK | not soluble
MGSDKIHHHHHHMAVFSQYFGKLNQYKNALTQKVDNYWTLSCFQDVAAINPWLVPGQGRKTGSSIVLKNDVLVELGSPEAGSCSMTLYTNSPHQITDGWITLMGSDITEYTPKKLPFGQVIMVGGEHLTEEDYYYLLQNLNVSEMIEGYMIRSTAESIWCRISKDAAKNGFNFHVLGSVLNWHIKQILPKVKAVEIVFVTTTKEDIEELNQISKEVGEIGRRIKERIWREKGVDIYKCVPGGHCGACEDKTVCDTIRKIGAGR | not soluble
MKTMRKILEIDEERCNGCGLCVLDCAEGAIAIVDGKAKIVSDSFCDGLGACIGSCPQDALHIIEREAVPFDEEAAMEHVRSQGGTPEANHGHGHGAGTPHRHGQSAEHGGHGRIPGHGGCPGAAMRRFDSAESPAFAVAEGTVKGPGHWPLKIRLVPPTAPFLKGADVLVAADCAAAASPIFHSHFAAGKVVLIGCPKFDDTEAYAERLADILRVSGIASLTVLRMEVPCCRGLSAAAEKARVLSGTSLVLKEVIMTCAGGPAAPAPLSSL | soluble
MASKKISLTKPKYQQIAVDVAEKIAEGKLHVGDKIHARSTLANQYQVSPETARKAIIVLVDLEIVKAKHGSGFYVASKEKAQDFVTQYQDVQTIAEIKEELLDSVAKQKEELTHFSSILDTLVEQTKRFDSFNPMNPYSLVLTEEAAYLEATISEMNFWQNTSATIIAIKHKEELLVSPGPYAKISLNDTLYFVGHDESTLQRVQNFFYP | not soluble
MRHHTIHPQLEQVFSAPYLRQLQKVTFQKGNYIGTQGQDITELTYILSGRVKIVRSLSNGKEHILQMPQQPQLLGDVELMTNQLAGSSVIALEEVQAAQLPLNNKEALLKDPIFLYHIGRNLAMALHRQGITASTNASYFVKERLATHILNIEEQDIFQLSPSILSSSFGTSYRHVQRVIKQFIDQGIIEKKAFKTYRILQRDSLETLAFID | not soluble
MGSDKIHHHHHHMRTLTISDEIVPAVYSLNIKQRFADVQLVLACGDLPIYYLEFVVTMLGQPCFYVWGNHDAPEVQADGQVVSYARGATCIEDHVVCHQGLLIGGLGGSIRYKPDGHHQYTETQMMLRVLRMAPRLFLNRLRYGRYLDVLLTHAPPLGIHNGPDYPHRGFLALLRFIQWFRPRYLIHGHIHLSYGFGHATETLYGQTLVINTAGYRVLDLAI | not soluble
MGSDKIHHHHHHMIKHIFCDLDGTLYENGTITKEDIVAIEEIEKKGVQFNVATGRIFKQAHNIIKDSLDMNGYYVCENGSFIYDKDYNVIFKRTIDDNLVKKVIDRFESSDAQLYFKYKGDVIVGSDTTAFRHYSSDFIVDPDFEKRSSFDNLIGNIGVCSENLEELSRIELYLKSEFSEVLEIYFSGTYTLNIVPKSVSKRGSIEHVIKTLNVSPDEVATIGDSPNDICMLEGFKYSFAMSKAREDVKQSANYVVDSVKSAIDVIMEINS | not soluble
